Publication PMC8716947

Tested on: T1, KguR (MBP-KguR-His6) (Escherichia coli (uropathogenic, CFT073)), ORF:aaa0ecb8
T1 sequence: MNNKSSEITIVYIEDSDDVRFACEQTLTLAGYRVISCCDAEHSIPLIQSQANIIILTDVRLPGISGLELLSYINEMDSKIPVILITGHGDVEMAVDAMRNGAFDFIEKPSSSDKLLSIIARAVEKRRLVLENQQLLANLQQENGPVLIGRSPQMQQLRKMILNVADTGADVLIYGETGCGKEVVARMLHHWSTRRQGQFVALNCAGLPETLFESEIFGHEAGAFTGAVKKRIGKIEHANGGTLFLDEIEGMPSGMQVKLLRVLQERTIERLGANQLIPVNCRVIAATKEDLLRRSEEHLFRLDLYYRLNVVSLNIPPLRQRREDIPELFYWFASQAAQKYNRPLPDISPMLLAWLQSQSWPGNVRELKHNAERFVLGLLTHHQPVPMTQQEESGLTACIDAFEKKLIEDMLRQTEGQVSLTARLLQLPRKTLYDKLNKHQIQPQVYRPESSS
Test: EMSA

CATTCATCATCCATTGAATGCATTTATATTTATCATCAGTATATTCCCTGAACAATGTTTGCGAGAACCAAAAGAGTGCCATTGTGTGAATGTGTAAGCAGAATAACCGTGGCAATGTGTGGTTTATCGCACAGGTATTCCAAATGTGATCATGCTCTTTTTATGTGACAAATCCGCAGATAATCCTTCCTTTCCCCCGCGGTTGGCGTTATGGTCAGATGGTT (double strand) [PkguS]
binding: binds
